# Patent US20030118612A1 (MAXYGEN, published 2003)
# Substitutions are numbered along the chain they refer to. Names and notes keep the numbering of the source.
# T1: human G-CSF receptor (human, UniProt Q99062 25-836)
# T1 sequence (looked up): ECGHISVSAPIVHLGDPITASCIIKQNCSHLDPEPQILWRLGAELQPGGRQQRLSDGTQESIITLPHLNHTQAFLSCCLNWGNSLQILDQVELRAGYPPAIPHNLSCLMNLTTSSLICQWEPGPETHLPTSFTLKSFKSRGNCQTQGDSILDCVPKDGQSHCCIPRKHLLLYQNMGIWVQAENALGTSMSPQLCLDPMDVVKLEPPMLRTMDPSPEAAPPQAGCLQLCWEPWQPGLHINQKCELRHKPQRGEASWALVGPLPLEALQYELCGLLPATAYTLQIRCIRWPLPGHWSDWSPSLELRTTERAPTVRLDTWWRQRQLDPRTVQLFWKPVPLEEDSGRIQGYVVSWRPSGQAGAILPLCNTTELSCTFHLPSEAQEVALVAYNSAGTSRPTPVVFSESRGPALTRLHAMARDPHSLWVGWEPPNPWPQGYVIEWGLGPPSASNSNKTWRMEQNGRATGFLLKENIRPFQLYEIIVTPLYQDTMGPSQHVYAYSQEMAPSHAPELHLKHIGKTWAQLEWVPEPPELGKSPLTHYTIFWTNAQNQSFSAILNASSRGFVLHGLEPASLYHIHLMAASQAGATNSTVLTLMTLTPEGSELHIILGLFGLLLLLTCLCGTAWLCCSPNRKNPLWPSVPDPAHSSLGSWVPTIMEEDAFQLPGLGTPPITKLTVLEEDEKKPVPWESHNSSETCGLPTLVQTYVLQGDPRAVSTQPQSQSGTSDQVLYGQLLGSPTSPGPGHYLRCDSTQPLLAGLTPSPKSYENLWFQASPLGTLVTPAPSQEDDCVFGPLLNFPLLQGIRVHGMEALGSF
# B1: G-CSF variant 40R conjugated to SPA-PEG 5000 (ligand)
# chain: TPLGPASSLPQSFLLKCLEQVRKIQGDGAALQEKLCATYRLCHPEELVLLGHSLGIPWAPLSSCPSQALQLAGCLSQLHSGLFLYQGLLQALEGISPELGPTLDTLQLDVADFATTIWQQMEELGMAPALQPTQGAMPAFASAFQRRAGGVLVASHLQSFLEVSYRVLRHLAQP
# modifications: SPA-PEG 5000 conjugated to the available PEGylation sites
# B2: G-CSF variant K16/34/40R S66K conjugated to SPA-PEG 5000 (ligand)
# chain: B1 chain with K16R, K34R, S66K
# modifications: SPA-PEG 5000 conjugated to the available PEGylation sites
# B3: G-CSF variant K16/23/40R conjugated to SPA-PEG 5000 (ligand)
# chain: B1 chain with K16R, K23R
# modifications: SPA-PEG 5000 conjugated to the available PEGylation sites
# B4: G-CSF variant K16/34/40R S62K conjugated to SPA-PEG 5000 (ligand)
# chain: B1 chain with K16R, K34R, S62K
# modifications: SPA-PEG 5000 conjugated to the available PEGylation sites
# B5: G-CSF variant K16/34/40R S53K conjugated to SPA-PEG 5000 (ligand)
# chain: B1 chain with K16R, K34R, S53K
# modifications: SPA-PEG 5000 conjugated to the available PEGylation sites
# B6: G-CSF variant K16/34R, non-conjugated (ligand)
# chain: B1 chain with K16R, K34R, R40K
# B7: G-CSF variant 16R, non-conjugated (ligand)
# chain: B1 chain with K16R, R40K
# B8: G-CSF variant K16/34/40R S66K, non-conjugated (ligand)
# chain: B1 chain with K16R, K34R, S66K
# B9: G-CSF variant K16/34/40R Q70K conjugated to SPA-PEG 5000 (ligand)
# chain: B1 chain with K16R, K34R, Q70K
# modifications: SPA-PEG 5000 conjugated to the available PEGylation sites
# B10: G-CSF variant K16/34/40R S53K, non-conjugated (ligand)
# chain: B1 chain with K16R, K34R, S53K
# B11: G-CSF variant K16/34/40R S76 conjugated to SPA-PEG 5000 (ligand)
# chain: B1 chain with K16R, K34R, S76K
# modifications: SPA-PEG 5000 conjugated to the available PEGylation sites
# B12: G-CSF variant K16/34/40R, non-conjugated (ligand)
# chain: B1 chain with K16R, K34R
# B13: G-CSF variant K16/34/40R Q67K conjugated to SPA-PEG 5000 (ligand)
# chain: B1 chain with K16R, K34R, Q67K
# modifications: SPA-PEG 5000 conjugated to the available PEGylation sites
# B14: G-CSF variant K16/34/40R S62K, non-conjugated (ligand)
# chain: B1 chain with K16R, K34R, S62K
# B15: G-CSF without N-terminal Histidine tag conjugated to SPA-PEG 5000 (ligand)
# chain: B1 chain with R40K
# modifications: SPA-PEG 5000 conjugated to the available PEGylation sites
# B16: G-CSF variant K16/23/40R, non-conjugated (ligand)
# chain: B1 chain with K16R, K23R
# B17: G-CSF variant K16/34/40R E46K, non-conjugated (ligand)
# chain: B1 chain with K16R, K34R, E46K
# B18: G-CSF variant K16/23R conjugated to SPA-PEG 5000 (ligand)
# chain: B1 chain with K16R, K23R, R40K
# modifications: SPA-PEG 5000 conjugated to the available PEGylation sites
# B19: G-CSF variant K16/34/40R Q67K, non-conjugated (ligand)
# chain: B1 chain with K16R, K34R, Q67K
# B20: G-CSF variant K16/34R conjugated to SPA-PEG 5000 (ligand)
# chain: B1 chain with K16R, K34R, R40K
# modifications: SPA-PEG 5000 conjugated to the available PEGylation sites
# B21: G-CSF variant K16/40R conjugated to SPA-PEG 5000 (ligand)
# chain: B1 chain with K16R
# modifications: SPA-PEG 5000 conjugated to the available PEGylation sites
# B22: G-CSF variant K16/34/40R S76, non-conjugated (ligand)
# chain: B1 chain with K16R, K34R, S76K
# B23: G-CSF variant K34/40R, non-conjugated (ligand)
# chain: B1 chain with K34R
# B24: G-CSF variant K16/23Q conjugated to SPA-PEG 5000 (ligand)
# chain: B1 chain with K16Q, K23Q, R40K
# modifications: SPA-PEG 5000 conjugated to the available PEGylation sites
# B25: G-CSF variant K16/34/40R L3K, non-conjugated (ligand)
# chain: B1 chain with L3K, K16R, K34R
# B26: G-CSF variant K16/23/34R, non-conjugated (ligand)
# chain: B1 chain with K16R, K23R, K34R, R40K
# B27: G-CSF variant K34/40R conjugated to SPA-PEG 5000 (ligand)
# chain: B1 chain with K34R
# modifications: SPA-PEG 5000 conjugated to the available PEGylation sites
# B28: G-CSF variant K16/34/40R Q70K, non-conjugated (ligand)
# chain: B1 chain with K16R, K34R, Q70K
# B29: G-CSF variant K16/34/40R conjugated to SPA-PEG 5000 (ligand)
# chain: B1 chain with K16R, K34R
# modifications: SPA-PEG 5000 conjugated to the available PEGylation sites
# B30: G-CSF variant K16/34/40R Q77, non-conjugated (ligand)
# chain: B1 chain with K16R, K34R, Q77K
# B31: G-CSF variant K16/34/40R L3K conjugated to SPA-PEG 5000 (ligand)
# chain: B1 chain with L3K, K16R, K34R
# modifications: SPA-PEG 5000 conjugated to the available PEGylation sites
# B32: G-CSF variant K16/23/34/40R conjugated to SPA-PEG 5000 (ligand)
# chain: B1 chain with K16R, K23R, K34R
# modifications: SPA-PEG 5000 conjugated to the available PEGylation sites
# B33: G-CSF variant K16/23R, non-conjugated (ligand)
# chain: B1 chain with K16R, K23R, R40K
# B34: G-CSF variant K16/40R, non-conjugated (ligand)
# chain: B1 chain with K16R
# B35: G-CSF variant K16/34/40R E46K conjugated to SPA-PEG 5000 (ligand)
# chain: B1 chain with K16R, K34R, E46K
# modifications: SPA-PEG 5000 conjugated to the available PEGylation sites
# B36: G-CSF variant K16/23Q, non-conjugated (ligand)
# chain: B1 chain with K16Q, K23Q, R40K
# B37: G-CSF variant K16/23/34/40R, non-conjugated (ligand)
# chain: B1 chain with K16R, K23R, K34R
# B38: G-CSF without N-terminal Histidine tag, non-conjugated (ligand)
# chain: B1 chain with R40K
# B39: G-CSF variant K16/23/34R conjugated to SPA-PEG 5000 (ligand)
# chain: B1 chain with K16R, K23R, K34R, R40K
# modifications: SPA-PEG 5000 conjugated to the available PEGylation sites
# B40: G-CSF with N-terminal Histidine tag, non-conjugated (ligand)
# chain: MKHQHQHQHQHQHQQTPLGPASSLPQSFLLKCLEQVRKIQGDGAALQEKLCATYKLCHPEELVLLGHSLGIPWAPLSSCPSQALQLAGCLSQLHSGLFLYQGLLQALEGISPELGPTLDTLQLDVADFATTIWQQMEELGMAPALQPTQGAMPAFASAFQRRAGGVLVASHLQSFLEVSYRVLRHLAQP
# Target: T1, human G-CSF receptor
# Test: cell-based or functional assay
EC50 (% of hG-CSF) conjugated to SPA-PEG 5000,EC50 (% of hG-CSF) non-conjugated,Binder
1 % of hG-CSF,–,B1
2 % of hG-CSF,–,B2
5 % of hG-CSF,–,B3
0.5 % of hG-CSF,–,B4
0.5 % of hG-CSF,–,B5
–,100 % of hG-CSF,B6
–,100 % of hG-CSF,B7
–,20 % of hG-CSF,B8
20 % of hG-CSF,–,B9
–,5 % of hG-CSF,B10
20 % of hG-CSF,–,B11
–,35 % of hG-CSF,B12
0.2 % of hG-CSF,–,B13
–,10 % of hG-CSF,B14
0.1 % of hG-CSF,–,B15
–,50 % of hG-CSF,B16
–,10 % of hG-CSF,B17
1 % of hG-CSF,–,B18
–,10 % of hG-CSF,B19
10 % of hG-CSF,–,B20

EC50 (% of hG-CSF) conjugated to SPA-PEG 5000,EC50 (% of hG-CSF) non-conjugated,Binder
5 % of hG-CSF,–,B21
–,50 % of hG-CSF,B22
–,50 % of hG-CSF,B23
1 % of hG-CSF,–,B24
–,50 % of hG-CSF,B25
–,50 % of hG-CSF,B26
5 % of hG-CSF,–,B27
–,30 % of hG-CSF,B28
30 % of hG-CSF,–,B29
–,1 % of hG-CSF,B30
25 % of hG-CSF,–,B31
15 % of hG-CSF,–,B32
–,100 % of hG-CSF,B33
–,50 % of hG-CSF,B34
1 % of hG-CSF,–,B35
–,80 % of hG-CSF,B36
–,20 % of hG-CSF,B37
–,100 % of hG-CSF,B38
10 % of hG-CSF,–,B39
–,10 % of hG-CSF,B40
